Laboratory results as given in the DeepSol protein solubility set.

assay: soluble on expression in E. coli; label from the status in PepcDB or PDB records

Sequence	soluble on expression in E. coli
MRKELVFVLLALFLCAGCNGNKKKMNGEHDLDAANITLDDHTISFYYNWYGNPSVDGEMKHWMHPIALAPGHSGDVGAISGLNDDIACNFYPELGTYSSNDPEIIRKHIRMHIKANVGVLSVTWWGESDYGNQSVSLLLDEAAKVGAKVCFHIEPFNGRSPQTVRENIQYIVDTYGDHPAFYRTHGKPLFFIYDSYLIKPAEWAKLFAAGGEISVRNTKYDGLFIGLTLKESELPDIETACMDGFYTYFAATGFTNASTPANWKSMQQWAKAHNKLFIPSVGPGYIDTRIRPWNGSTTRDRENGKYYDDMYKAAIESGASYISITSFNEWHEGTQIEPAVSKKCDAFEYLDYKPLADDYYLIRTAYWVDEFRKARSASEDVQLEHHHHHH	soluble
GSHMVKDTLFSTPIAKLGDFIFDENVAEVFPDMIQRSVPGYSNIITAIGMLAERFVTADSNVYDLGCSRGAATLSARRNINQPNVKIIGIDNSQPMVERCRQHIAAYHSEIPVEILCNDIRHVEIKNASMVILNFTLQFLPPEDRIALLTKIYEGLNPNGVLVLSEKFRFEDTKINHLLIDLHHQFKRANGYSELEVSQKRTALENVMRTDSIETHKVRLKNVGFSQVELWFQCFNFGSMIAVK	soluble
MCICPNRQTAASVGQRYGEPVVLRVDAGRMHRNGLPFFKADNGVWLTAQVPAAFLTRPRLEHHHHHH	not soluble
MGSDKIHHHHHHMKKSIVVFEVEGGSDKHFDGHRKDTMPIVNSINDAGWQAEVVYYRPEWTEGLFEYVSENFDGYISRVNPGNIPGGERGYFDLLTRLSEAGLVGMSTPEEMMAYGAKDALVKLSQTDLVPSDTEAYYDVETFHKVFPTSLSFGERVLKQNRGSTGSGIWRVQLVDKELAASIEPGTALPLDTEIKCTEAVDNHTEVRKLGEFMDFCDQYIIGDNGMLVDMRFMPRIVEGEIRILLVGPHPVFVVHKKPAEGGDNFSATLFSGAKYTYDKPEQWQELIDLFADARPVIAEKLGGDNIPLIWTADFMLGDVVDGKDTYVLGEINCSCVGFTSELDMGIQQLVASEAIKRIEEFAQLTV	not soluble
MSLDLEDKQQKLEQAILGALDEVQVLNEDRILRRYLDLIKATLRTNFYQPDGNGQNKSYFSFKFNPKAIPELPRPVPKYEIFVYSPRVEGVHLRGGKVARGGLRWSDREEDFRTEVLGLVKAQQVKNAVIVPVGAKGGFVPRRLPLGGSRDEIQAEAIACYRIFISGLLDITDNLKEGEVVPPANVVRHDEDDPYLVVAADKGTATFSDIANGIAAEYGFWLGDAFASGGSAGYDHKGMGITAKGAWVSVQRHFRERGIDVQKDNISVIGIGDMAGDVFGNGLLMSDKLQLVAAFNHMHIFIDPNPDAASSFVERQRLFNLPRSSWADYDAKLISAGGGIFLRSAKSIAITPEMKARFDIQADRLAPTELIHALLKAPVDLLWNGGIGTYVKSSKETHADVGDKANDGLRVDGRELRAKVVGEGGNLGMTQLARVEFGLHGGANNTDFIDNAGGVDCSDHEVNIKILLNEVVQAGDMTEKQRNALLVKMTDAVGALVLGNNYKQTQALSLAQRRARERIAEYKRLMGDLEARGKLDRALEFLPSDEELAERISAGEGHHHHHH	not soluble
SDNISLEYFEEAVCYMLQHPQVKGPGIGLLGISLGADICLSMASFLKNVSATVSINGSGISGNTAINYKHSSIPPLGYDLRRIKVAFSGLVDIVDIRNALVGGYKNPSMIPIEKAQGPILLIVGQDDHNWRSELYAQTVSERLQAHGKEKPQIICYPGTGHYIEPPYFPLCPASLHRLLNKHVIWGGEPRAHSKAQEDAWKQILAFFCKHLGGTQKTAVPKL	soluble
MILIIYAHPYPHHSHANKRMLEQAGTLENVEIRSLYHLYPDFNIDVAAEQEALSRASLIVWQHPMQWYSVPPLLKLWMDKVLTHGWAYGHGGTALHGKHLLWAVTTGGGENHFAIGSHPGFDVLSQPLQATALYCGLKWLSPFAMHCTFICDDDTLQAQARQYKQRLLAWQEVNHG	not soluble
MVVVEQIKSQKIHGCQILETVYKHSCGGLPPVRSALEKILAVCHGVMYKQLSAWMLHGLLLDQHEEFFIKQGPSSGNVSAQPEEDEEDLGIGGLTGKQLRELQDLRLIEEENMLAPSLKQFSLRVEILPSYIPVRVAEKILFVGESVQMFENQNVNLTRKGSILKNQEDTFAAELHRLKQQPLFSLVDFEQVVDRIRSTVAEHLWKLMVEESDLLGQLKIIKDFYLLGRGELFQAFIDTAQHMLKTPPTAVTEHDVNVAFQQSAHKVLLDDDNLLPLLHLTIEYHGKEHKADATQAREGPSRETSPREAPASGWAALGLSYKVQWPLHILFTPAVLEKNRQF	soluble
NDTVLIAGAGHAGFQVAVSLRQAKYPGRIALINDEKHLPYQRPPLSKAYLKSGGDPNSLMFRPEKFFQDQAIELISDRMVSIDREGRKLLLASGTAIEYGHLVLATGARNRMLDVPNASLPDVLYLRTLDESEVLRQRMPDKKHVVVIGAGFIGLEFAATARAKGLEVDVVELAPRVMARVVTPEISSYFHDRHSGAGIRMHYGVRATEIAAEGDRVTGVVLSDGNTLPCDLVVVGVGVIPNVEIAAAAGLPTAAGIIVDQQLLTSDPHISAIGDCALFESVRFGETMRVESVQNATDQARCVAARLTGDAKPYDGYPWFWSDQGDDKLQIVGLTAGFDQVVIRGSVAERSFSAFCYKAGKLIGIESVNRAADHVFGRKILPLDKSVTPEQAADLSFDLKKAAA	soluble
MGSDKIHHHHHHMEGGAMMLLEVKNVTKKFGDKVVLKNISFTLEEGESLGILGKSGAGKSVLLHMLRGMDGYEPTEGQIIYHVSYCEKCGYVDVPSKAGTPCKKCGNELKKIEVDFWNDKKYTYNLKRKIAIMLQRTFALYGEKTVLENILEALHQAGYEGKEAIDMALKLIKMVKLEHRITHIARDLSGGEKQRVVLARQIAKEPFIFLADEPTGTLDPQTAKLVHSALKELVIKNKISLILTSHWPEVIAELTEKAIWLDKGEIIMEGTSEEVVNKFMETVKEFKKPETEVEIKEDIIKLENVSKHYCSVERGVIKAVDNVTLNIREREIFGLVGTSGAGKTTLAKIIAGVLPPSKGKYWFRVGDEWVDMTKPGPMGRGRAKRYIGILFQEYALYPHRTILENLTEAIGLELPDEFARMKAVYTLVSVGFSEEEAEEILDKYPHELSVGERHRCALAQVLIKEPRVVILDEPTGTMDPITRNTVAESIHKSRIELEQTYIIVSHDMDFVLNVCDRAGLMRNGKLIKVGKPEEIVALLTEEEKQEMFGQK	not soluble
MGHHHHHHSHMSQPPLLPASAETRKFTRALSKPGTAAELRQSVSEVVRGSVLLAKPKLIEPLDYENVIVQKKTQILNDCLREMLLFPYDDFQTAILRRQGRYICSTVPAKAEEEAQSLFVTECIKTYNSDWHLVNYKYEDYSGEFRQLPNKVVKLDKLP	not soluble
MSSARLVIAGLNGGTGKTILSLGTVRALTNAGHSVKPFKKGPDYIDAEWLGLAAGRAATNLDPFFLDAARLQSLFLHASAGASISIIEGNRGLYDGRDVTGSCSTAELARILDSPVVLAMDCTKMTRTAAAILSGVAAFEPGVKLAGVVLNRTANERHRSMLRQCIEHYTDIPVLGALPRLRDNPIPERHMGLVSDREFAQCAGELDRVAQFVAQHVDVERMAEIARSAQPLASNEPFWPVVAEGDGVRPRIGYVRDAALWFYYEENLEALRQAGADLVELRIIDGDPWPTLDGLYLGGGFPETLASELSACRERLAGIREAALAGLPVYAECGGFMVLGESIVMDGVEYPMSGVFPVQTVFHPKPQGLGYVEAEVVAENPFFPQGMVFRGHEFHYSACRPRDGGAVTHALRLNPGTGMGGGADGLVQANTFAAYTHIFGPAVQGWAERFVRAARGHRDQLNKGTDLSLEHHHHHH	not soluble
MGSDKIHHHHHHMSLIFDIKRYAINDGPGIRITLFMKGCPLSCIWCHNPEGIRNGKDKLYTAKKCLGCGTCLKVCPNGALTLTPEGIITDKQKCVLCGRCAEECPAMAIEISGTEYTAEYLMHEIEKEIPFMDQSGGGVTFCGGEPLLHPEFLIDILKRCGQQGIHRAVDTTLLARKETVDEVMRNCELLLIDLKSMDSTVHQTFCDVPNELILKNIRRVAEADFPYYIRIPLIEGVNADEKNIKLSAEFLASLPRHPEIINLLPYHDIGKGKHAKLGSIYNPKGYKMQTPSEEVQQQCIQILTDYGLKATIGG	not soluble
MRIPRIYHPISLENQTQCYLSEDAANHVARVLRMTEGEQLELFDGSNHIYPAKIIESNKKSVKVEILGRELADKESHLKIHLGQVISRGERMEFTIQKSVELGVNVITPLWSERCGVKLDAERMDKKIQQWQKIAIAACEQCGRNIVPEIRPLMKLQDWCAENDGALKLNLHPRAHYSIKTLPTIPAGGVRLLIGSEGGLSAQEIAQTEQQGFTEILLGKRVLRTETASLAAISALQICFGDLGEAAAAAALEHHHHHH	soluble
MDIAEQLIQNAGKRSTPVRSAVLGVLLNAEDVLSHSEVLEHLQQLGAFDRVTVYRALDWLVTQGLVHKVAGAGRAWRFQVTRSESMHRHAHFQCHHCHKVFCLPEVQPVLPKELPSNFSIDSIELNIKGICADCGRAMMSQ	not soluble
MAIPDYQAVMLPLLKYAGDGKEHHIRDAIEKLAEEFELSEEERKELLPSGQQAIFKNRIGWANTYLKKAGLLGSRKKGYFSITRRGLDVLREKPPSIDVSFLKRYKEFNEFYNKDKQVLIDKPDVPEAEGKRALDPEESLEIAYQKLHNELVSEIISTTKKCSPAFFESLVVDVLTKMGYGGSRVDAGKAIGKSHDGGIDGIIKEDRLGLDVIYIQAKRWEGTVSKPEIQKFAGALIGKKAKKGVFITTSSFSKEAIEYADFTGNIVLVDGEMLARLMIEYNVGVSRVKSYEVKKMDTDYFEDGVI	not soluble
MGSDKIHHHHHHMSGFSPELIDYLEGKISFEEFERRREERKTREKKSLQEKGKLSAEENPDDSEVPSSSGINSTKSQDKDVSEGETSDGVRKSVHKVFASMLGENEDDEEEEEEEEEEEEEEETPEQPTAGDVFVLEMVLNRETKKMMKEKRPRSKLPRALRGLMGEANIRFARGEREEAILMCMEIIRQAPLAYEPFSTLAMIYEDQGDMEKSLQFELIAAHLNPSDTEEWVRLAEMSLEQDNIKQAIFCYTKALKYEPTNVRYLWERSSLYEQMGDHKMAMDGYRRILNLLSPSDGERFMQLARDMAKSYYEANDVTSAINIIDEAFSKHQGLVSMEDVNIAAELYISNKQYDKALEIITDFSGIVLEKKTSEEGTSEENKAPENVTCTIPDGVPIDITVKLMVCLVHLNILEPLNPLLTTLVEQNPEDMGDLYLDVAEAFLDVGEYNSALPLLSALVCSERYNLAVVWLRHAECLKALGYMERAAESYGKVVDLAPLHLDARISLSTLQQQLGQPEKALEALEPMYDPDTLAQDANAAQQELKLLLHRSTLLFSQGKMYGYVDTLLTMLAMLLKVAMNRAQVCLISSSKSGERHLYLIKVSRDKISDSNDQESANCDAKAIFAVLTSVLTKDDWWNLLLKAIYSLCDLSRFQEAELLVDSSLEYYSFYDDRQKRKELEYFGLSAAILDKNFRKAYNYIRIMVMENVNKPQLWNIFNQVTMHSQDVRHHRFCLRLMLKNPENHALCVLNGHNAFVSGSFKHALGQYVQAFRTHPDEPLYSFCIGLTFIHMASQKYVLRRHALIVQGFSFLNRYLSLRGPCQESFYNLGRGLHQLGLIHLAIHYYQKALELPPLVVEGIELDQLDLRRDIAYNLSLIYQSSGNTGMAQTLLYTYCSI	not soluble
